Test results: paper PMC10551896, “Methylation of the transcription factor E2F1 by SETD6 regulates SETD6 expression via a positive feedback mechanism” (The Journal of Biological Chemistry, 2023)

Molecular target: T1, recombinant glutathione-S-transferase (GST)-tagged SETD6 (UniProt Q8TBK2 1-473)
T1 construct: SET domain-containing protein 6 (SETD6), a 53 kDa protein lysine methyltransferase; also called GST-SETD6; GST SETD6
T1 sequence (looked up): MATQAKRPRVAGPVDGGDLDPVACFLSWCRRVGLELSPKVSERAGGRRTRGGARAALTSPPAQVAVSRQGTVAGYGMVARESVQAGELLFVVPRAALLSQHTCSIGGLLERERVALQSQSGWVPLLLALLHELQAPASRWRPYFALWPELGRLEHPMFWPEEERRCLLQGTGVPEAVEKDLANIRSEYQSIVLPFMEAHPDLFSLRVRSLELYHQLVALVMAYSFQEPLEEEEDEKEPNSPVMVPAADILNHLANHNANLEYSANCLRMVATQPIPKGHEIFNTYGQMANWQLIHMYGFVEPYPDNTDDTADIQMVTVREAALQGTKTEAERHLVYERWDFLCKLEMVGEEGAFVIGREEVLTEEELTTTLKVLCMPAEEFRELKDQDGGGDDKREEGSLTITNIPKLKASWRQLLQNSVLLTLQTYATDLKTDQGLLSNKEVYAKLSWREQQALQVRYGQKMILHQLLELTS
Experiment: ELISA; His-SUMO-E2F1 (2 ug) in PBS immobilised on a 96-well plate, 1 h room temperature, blocked with 3% BSA; 0.5 ug GST-SETD6 in 1% BSA in PBS and Tween-20 for 1 h at room temperature; detected with anti-GST and HRP-conjugated secondary antibody, absorbance at 450 nm
Settings: both partners purified

B1: recombinant His-SUMO-E2F1 (natural protein)
chain: not shown
notes: the same insert was cloned into pET-SUMO and pGEX-6p1; also called His-SUMO-E2F1 WT; source: E. coli Rosetta, purified (nickel-nitrilotriacetic acid beads or HisTrap column)
binding result: binds
